Results published in patent publication US20120190564A1, “IDENTIFICATION OF PROTEIN BINDING SITES” (priority 2000, published 2012).
Entries after “also recorded” stand apart in the source; their conditions may differ. Ends that are not written are not given here. code + = amino-terminal bromo-group; mmt = not defined here

Columns and labels:
Type in all cases: binding
Antibody-2 = test: Pepscan ELISA on single or double hFSH peptide loops, Antibody-2; conditions: individual loop peptides coupled as single loops
Description: (§1) FIG. 17: Result of Pepscan ELISA with two different antibodies on single or double peptide loops coupled to Pepscan minicards, as described above. Coupled to square-A: Loop peptide-1; Coupled to square-B: first Loop peptide-1 followed by Loop peptide-2; Coupled to square-C: Loop peptide-2; Coupled to square-D: first Loop peptide-2 followed by Loop peptide-1. Loop peptide-1: +KSYNRVTVMGGFKVEZ-conh2 (SEQ ID NO: 63); Loop peptide-2: +LQENPFFSQPGAPILZ-conh2 (SEQ ID NO: 64). The y-axis are optical density values (OD) obtained using a ccd-camera system. Both loop-peptides are derived from human Follicle-Stimulating Hormone (hFSH).
(§2) Two peptides that constitute two separate parts of a discontinuous epitope were coupled to the surface of a minicard as described above in the legend of FIG. 12 (cf. FIG. 3A and FIG. 4 (example-4)). A cys(mmt) was coupled alone or in combination with a cys(trt) (in a 1:1 ratio) and/or val(mmt) (the cys and val in a 1:1, 1:3, 1:9 etc. ratio). In this way one peptide was coupled (squares A and C) or two peptides with increasing valines in between the cysteines were coupled (squares B and D) (cf. FIG. 4B (example-4), FIG. 17). These four configurations were incubated with two different antibodies.

lysozyme-biotin = lysozyme-biotin (Gallus gallus, UniProt P00698); test: Loop-loop Matrix-scan of CDR loop-peptide pairs with lysozyme-biotin; conditions: lysozyme-biotin 100 ug/ml, in triplo
Experimental: FIG. 16: Result of the loop-loop 15-mer Matrix-scan of loop-loop CDR-regions of antibodies with lysozyme-biotin (100 ug/ml, in triplo). Using 1 μg/ml lysozyme-biotin no binding is observed (not shown). Controls of only streptavidin-peroxidase in between the tests were negative (not shown). Peptides A, B, C, D, E and F: Peptide-A: +ARERDYRLDYZ (SEQ ID NO: 30) (HCDR3 of 1 fdl.pdb); Peptide-B: +ARGDGNYGYZ (SEQ ID NO: 31) (HCDR3 of 1mlb.pdb); Peptide-C: +LHGNYDFDGZ (SEQ ID NO: 32) (HCDR3 of 3hfl.pdb); Peptide-D: +ANWDGDYZ (SEQ ID NO: 33) (HCDR3 of 3hfm.pdb); Peptide-E: +ARRYGNSFDYZ (SEQ ID NO: 34) (HCDR3 of 1qfw.pdb); Peptide-F: +ARQGTAAQPYWYZ (SEQ ID NO: 35) (HCDR3 of 1qfw.pdb) (1fdl.pdb, 1mlb.pdb, 3hfl.pdb and 3hfm.pdb are antibodies that bind lysozyme; 1qfw.pdb are two antibodies that bind human choriogonadotrophin). All peptides have an amino terminal bromo-group (+) and a carboxyterminal lysine-mmt (Z).
Peptides 1 to 27: Peptide-1: +RASGNIHNYLAZ (SEQ ID NO: 36) (LCDR1 of 1fdl.pdb); Peptide-2: +RASQSISNNLHZ (SEQ ID NO: 37) (LCDR1 of 1mlb.pdb); Peptide-3: +SASSSVNYMYZ (SEQ ID NO: 38) (LCDR1 of 3hfl.pdb); Peptide-4: +RASQSIGNNLHZ (SEQ ID NO: 39) (LCDR1 of 3hfm.pdb); Peptide-5: +RASESVDSYGNSZ (SEQ ID NO: 40) (LCDR1 of 1qfw.pdb); Peptide-6: +ASESVDSYGNSFZ (SEQ ID NO: 41) (LCDR1 of 1qfw.pdb); […]: +SESVDSYGNSFMZ (SEQ ID NO: 42) (LCDR1 of 1qfw.pdb); Peptide-8: +ESVDSYGNSFMQZ (SEQ ID NO: 43) (LCDR1 of 1qfw.pdb); Peptide-9: +RASESVDSYGNSFZ (SEQ ID NO: 44) (LCDR1 of 1qfw.pdb); Peptide-10: +ASESVDSYGNSFMZ (SEQ ID NO: 45) (LCDR1 of 1qfw.pdb); Peptide-11: +SESVDSYGNSFMQZ (SEQ ID NO: 46) (LCDR1 of 1qfw.pdb); Peptide-12: +RASESVDSYGNSFMZ (SEQ ID NO: 47) (LCDR1 of 1qfw.pdb); Peptide-13: +ASESVDSYGNSFMQZ (SEQ ID NO: 48) (LCDR1 of 1qfw.pdb); Peptide-14: +RASESVDSYGNSFMQZ (SEQ ID NO: 49) (LCDR1 of 1qfw.pdb); Peptide-15: +KASETVDSFVSZ (SEQ ID NO: 50) (LCDR1 of 1qfw.pdb); Peptide-16: +LLVYYTTTLADGZ (SEQ ID NO: 51) (LCDR2 of 1fdl.pdb); Peptide-17: +LLIKYVSQSSSGZ (SEQ ID NO: 52) (LCDR2 of 1mlb.pdb); Peptide-18: +RWIYDTSKLASGZ (SEQ ID NO: 53) (LCDR2 of 3hfl.pdb); Peptide-19: +LLIKYASQSISGZ (SEQ ID NO: 54) (LCDR2 of 3hfm.pdb); Peptide-20: +LLIYRASNLESGZ (SEQ ID NO: 55) (LCDR2 of 1qfw.pdb); Peptide-21: LLIFGASNRESGZ (SEQ ID NO: 56) (LCDR2 of 1qfw.pdb); Peptide-22: +QHFWSTPRTZ (SEQ ID NO: 57) (LCDR3 of 1fdl.pdb); Peptide-23: +QQSNSWPRTZ (SEQ ID NO: 58) (LCDR3 of 1mlb.pdb); Peptide-24: +QQWGRNPTZ (SEQ ID NO: 59) (LCDR3 of 3hfl.pdb); Peptide-25: +QQSNSWPYTZ (SEQ ID NO: 60) (LCDR3 of 3hfm.pdb); Peptide-26: +QQSDEYPYMYTZ (SEQ ID NO: 61) (LCDR3 of 1qfw.pdb); Peptide-27: +GQTYNHPYTZ (SEQ ID NO: 62) (LCDR3 of 1qfw.pdb) (1 fdl.pdb, 1mlb.pdb, 3hfl.pdb and 3hfm.pdb are antibodies that bind lysozyme; 1 qfw.pdb are two antibodies that bind human choriogonadotrophin). All peptides have an amioterminal bromo-group (+) and a carboxyterminal lysine-mmt (Z).
From six different antibodies, the HCDR3-region (complementary determining region three of the antibody heavy chain) was synthesized as synthetic loop-peptides. As an example, four different anti-lysozyme antibodies and two different anti-choriogonadotrophin antibodies were selected: 1fdl.pdb (D1.3), 1mlb.pdb (D44.1), 3hfl.pdb (HyHel-5), 3hfm.pdb (HyHel-10) all anti-lysozyme, and 1qfw.pdb, two anti-human choriogonadotrophin, one anti-alpha and one anti-beta. The synthetic loop peptides were coupled to the minicards as described above. The three-dimensional coordinates (pdb-files) were extracted from the Protein Data Bank (PDB) at www.rcsb.org (RCSB, Research Collaboratory for Structural Bioinformatics) (Berman et al., 2000, The Protein Data Bank. Nucleic Acids Research, 28 pp. 235-242; Bernstein et al. 1977, The protein data bank: A computer-based archival file for macromolecular structures. J. Mol. Biol. 112:535-542). […]

Antibody-1 = test: Pepscan ELISA on single or double hFSH peptide loops, Antibody-1; conditions: individual loop peptides coupled as a single loop
Description: as §1, §2

monoclonal antibody 210 = test: Standard linear Pepscan on all overlapping 12-mers of hTNF with mAb 210; conditions: all overlapping linear 12-mers covering hTNF
Experimental: FIG. 10: Standard linear Pepscan on all overlapping synthetic 12-mers covering the linear sequence of hTNF with monoclonal antibody 210 (R&D Systems, MAB210, clone 1825.12, through ITK Diagnostics Uithoorn, The Netherlands). A small peak with the sequence IKSPCQRETPEG (SEQ ID NO: 2) was identified. The y-axis are optical density values (OD) obtained using a ccd-camera system. Rampo, rabbit-anti-mouse peroxidase (DAKO).
The monoclonal antibody mAb-210 raised against hTNF was tested on linear and loop peptides (mAb-210 was bought from R&D Systems, MAB210, clone 1825.12, through ITK Diagnostics Uithoorn, The Netherlands). Firstly, it was tested in Pepscan on all overlapping linear 12-mers covering hTNF. […] Secondly, it was tested in Pepscan matrix-scan on double 15-mer loop-loop peptides (as described in FIGS. 3 and 4 and explained through FIGS. 11-12). Two loop-regions were labeled: peptide sequence GQGCPSTHVLLT (SEQ ID NO: 65) (squares 65 to 67) and SAIKSPCQRE (SEQ ID NO: 28) (squares 92 to 96) (FIGS. 13, 14). In addition in various squares loop peptide spots were identified corresponding to sequence GQGCPSTHVLLT (SEQ ID NO: 65) (spots 65-67); SAIKSPCQRE (SEQ ID NO: 28) (spots 92-96) and KGDRLSAEINR (SEQ ID NO: 29) (spots 126-129) (FIG. 14). […]

Sequence of lysozyme-biotin (P00698 19-147): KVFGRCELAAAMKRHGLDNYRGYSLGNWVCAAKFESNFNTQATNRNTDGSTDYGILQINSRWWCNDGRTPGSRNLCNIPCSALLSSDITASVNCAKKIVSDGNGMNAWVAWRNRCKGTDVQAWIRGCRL

Substance | binding activity with lysozyme-biotin (lysozyme-biotin) | other results
+KSYNRVTVMGGFKVEZ-conh2 ({code +}-KSYNRVTVMGGFKVEX-NH2; not fully specified; printed as +KSYNRVTVMGGFKVEZ-conh2) [loop peptide-1, loop-peptide derived from human Follicle-Stimulating Hormone (hFSH)] | – | recognition by Antibody-2 (Antibody-2): recognized
+LHGNYDFDGZ (SEQ ID NO: 32)+RASESVDSYGNSFMQZ (SEQ ID NO: 49): loop-loop peptide pair: loop of HCDR3 of 3hfl.pdb and loop of LCDR1 1qfw.pdb (chain 1 {code +}-LHGNYDFDGK(mmt); chain 2 {code +}-RASESVDSYGNSFMQK(mmt); not fully specified; reading uncertain) | highest binding activity | –
+LHGNYDFDGZ (SEQ ID NO: 32)+RASESVDSYGNSFZ (SEQ ID NO: 44): loop-loop peptide pair: loop of HCDR3 of 3hfl.pdb and loop of LCDR1 1qfw.pdb (chain 1 {code +}-LHGNYDFDGK(mmt); chain 2 {code +}-RASESVDSYGNSFK(mmt); not fully specified; reading uncertain) | highest binding activity | –
+LHGNYDFDGZ (SEQ ID NO: 32)+SESVDSYGNSFMQZ (SEQ ID NO: 46): loop-loop peptide pair: loop of HCDR3 of 3hfl.pdb with loop of LCDR1 of 1qfw.pdb (chain 1 {code +}-LHGNYDFDGK(mmt); chain 2 {code +}-SESVDSYGNSFMQK(mmt); not fully specified; reading uncertain) | highest binding activity | –
+LQENPFFSQPGAPILZ-conh2 ({code +}-LQENPFFSQPGAPILX-NH2; not fully specified; printed as +LQENPFFSQPGAPILZ-conh2) [loop peptide-2, loop-peptide derived from human Follicle-Stimulating Hormone (hFSH)] | – | recognition by Antibody-1 (Antibody-1): recognized
IKSPCQRETPEG | – | Pepscan binding of monoclonal antibody 210 (optical density) (monoclonal antibody 210): minor peak; also recorded: small peak

Now from value to substance, other results behind:

binding activity with lysozyme-biotin (lysozyme-biotin) | Substance | other results
highest binding activity | +LHGNYDFDGZ (SEQ ID NO: 32)+ASESVDSYGNSFMZ (SEQ ID NO: 45): loop-loop peptide pair: loop of HCDR3 of 3hfl.pdb and loop of LCDR1 1qfw.pdb (chain 1 {code +}-LHGNYDFDGK(mmt); chain 2 {code +}-ASESVDSYGNSFMK(mmt); not fully specified; reading uncertain) | –
highest binding activity | +LHGNYDFDGZ (SEQ ID NO: 32)+ASESVDSYGNSFZ (SEQ ID NO: 41): loop-loop peptide pair: loop of HCDR3 of 3hfl.pdb and loop of LCDR1 1qfw.pdb (chain 1 {code +}-LHGNYDFDGK(mmt); chain 2 {code +}-ASESVDSYGNSFK(mmt); not fully specified; reading uncertain) | –
highest binding activity | +LHGNYDFDGZ (SEQ ID NO: 32)+LLVYYTTTLADGZ (SEQ ID NO: 51): loop-loop peptide pair: loop of HCDR3 of 3hfl.pdb and loop of LCDR2 1fdl.pdb (chain 1 {code +}-LHGNYDFDGK(mmt); chain 2 {code +}-LLVYYTTTLADGK(mmt); not fully specified; reading uncertain) | –
